From US11020478B2, “Methods for modulating angiogenesis of cancers refractory to anti-VEGF treatment” (INIS BIOTECH LLC, priority 2013, dated 2021)

Assays:
B16-F0 tumor parenchyma = assay: Adoptive transfer of CFSE-labeled T cells / fluorescent beads, influx to tumor and spleen; assay type: in vivo, mouse
Protocol: (§1) For intracellular cytokine staining, TDLN cells were made permeable with Perm2 solution (BD Biosciences) and were labeled with fluorescent-conjugated mAb anti-IFN-γ (XMG1.2; BD Biosciences), anti-IL-17 (TC11-18H10; BD Biosciences), anti-IL-10 (JESS-16E3; eBioscience), anti-CD8 (H35-17.2; eBioscience) and anti-CD4 (GK1.5; BD Biosciences). Cells were analyzed on a FACSCanto II flow cytometer (BD Biosciences). For adoptive transfer, splenic T cells (5×10^6) from tumor-bearing mice were labeled with CFSE (Molecular Probes) and injected through the tail vein into tumor-bearing recipient mice treated with F8.G7 mAb or isotype control. APC-fluorescent beads (7-10 μm; BD Biosciences) were injected as controls. CFSE^+ cells or APC^+ beads were analyzed after 24 h or 15 min respectively by flow cytometry in the tumor parenchyma and spleen.

TDLN cells = assay: TDLN cell responses of tumor-bearing mice (ex vivo restimulation, ELISA, flow cytometry); assay type: in vivo, mouse
Protocol: (§2) Gal1 was determined using an in-house ELISA (according to the methods described in Croci et al., J. Exp. Med. 209:11, 1985-2000 (2012). The mouse IFN-γ (DY485), mouse IL-17 (DY421), mouse TGF-β1 (DY1679), mouse Gal3 (DY1179) and human VEGF-A (DY293B) ELISA sets were from R&D. The mouse IL-10 (555252) set was from BD Biosciences, the mouse bFGF (Ab100670) set was from Abcam, and the mouse Gal8 (SEA308Mu) set was from USCN Life Science. Optical densities were determined at 450-550 nm in a Multiskan MS microplate reader (Thermo Electron Corporation).
as §1
(§3) Mice were anesthetized and intracardiacally perfused with PBS and 4% (w/v) paraformaldehyde and tissues were embedded in OCT. To visualize the vasculature, mice were intravenously injected with FITC-conjugated Griffonia simplicifolia Lectin-1 (GLS-1B4; Vector) prior to heart perfusion and fixation. Pericyte maturation was assessed using Ab specific for α-SMA (1A4; Dako), desmin (D33; Dako), PDGFR-β (APB5; Biolegend) and RGS5 (HPA001821; Prestige Sigma). The fraction of pericyte coverage was calculated as the ratio of α-SMA area to the FITC-GLS-1B4 or CD31-stained area using a specific anti-CD31 Ab (Mec13.3; BD Biosciences). Hypoxia was detected after injection of pimonidazole hydrochloride for 30 min following immunostaining with Hypoxyprobe-1 plus kit (Natural Pharmacia). Tumor-infiltrating cells were analyzed using anti-CD8 (H35-17.2; e-Bioscience) and anti-F4/80 (BM8; eBioscience) mAb.
Wild-type or Gal1 knockdown B16-F0, LLC1 and R1.1 (2.5 or 5×10^5 cells) were subcutaneously inoculated into 6- to 8-week old WT, Mgat5^−/−, St6gal1^−/− or Rag1^−/− B6 mice. CT26 (5×10^5) cells were injected into syngeneic BALB/c mice. […] Two weeks after tumor inoculation, TDLN cells (5×10^5/well) were re-stimulated ex vivo for 72 hours with lysates of B16-F0 or LLC1 cells and analyzed for proliferation and cytokine production (as described in Rubinstein et al., Cancer Cell 5:3, 241-51 (2004)).

B16-F0 melanoma [1] = assay: In vivo tumor model, B16-F0; design: species or system mouse
Protocol: as §3
(§4) Wild-type or Gal1 knockdown B16-F0, LLC1 and R1.1 (2.5 or 5×10^5 cells) were subcutaneously inoculated into 6- to 8-week old WT, Mgat5^−/−, St6gal1^−/− or Rag1^−/− B6 mice. CT26 (5×10^5) cells were injected into syngeneic BALB/c mice. When tumors reached 100 mm^3, mice were inoculated intraperitoneally with anti-VEGF (B20-4.1.1; 5 or 10 mg/kg), anti-Gal1 (F8.G7; 5, 10 or 15 mg/kg) or isotype control mAb twice weekly. Axitinib (30 mg/kg; Sigma) was administered every two days by oral gavage. Mice were sacrificed when tumors reached a volume greater than 2.5 cm^3. Two weeks after tumor inoculation, TDLN cells (5×10^5/well) were re-stimulated ex vivo for 72 hours with lysates of B16-F0 or LLC1 cells and analyzed for proliferation and cytokine production (as described in Rubinstein et al., Cancer Cell 5:3, 241-51 (2004)).

Gal1 = biological target: T1, Gal1 (Mus musculus, UniProt P16045); assay: ELISA of Gal1 secretion by tumors inoculated in syngeneic mice; assay type: in vivo; conditions: B16-F0, LLC1 and R1.1 tumors, day 16
T1 construct: from tissue; host or cells: B16-F0, LLC1 and R1.1 tumours grown in syngeneic mice
Protocol: as §2, §4

B16-F0 melanoma [2] = assay: In vivo tumor model, B16-F0; design: species or system mouse; conditions: single administration of F8.G7 mAb, 10 mg/kg
VEGFR2 = assay: Immunoblot of VEGFR2 phosphorylation in HUVEC; assay type: cell-based, human
Protocol: Cells were lysed and analyzed by the human […] RTK Signaling Antibody Array (Cell Signaling) following the manufacturer's directions. For co-immunoprecipitation, 500 μg lysates were incubated with 2 μg anti-VEGFR2 (55B11; Cell Signaling) Ab. The immunocomplexes were captured with protein G PLUS-Agarose (Santa Cruz) and processed for immunoblotting (according to methods described in Ilarregui et al., Nat. Immunol. 10, 981-99 (2009)). Blots were probed with anti-Erk1/2 (C14), anti-phospho-Erk1/2 (E4), anti-actin (I-19), anti-Gal3 (B2C10), anti-Gal4 (Q20), anti-Gal7 (H8) or anti-Gal8 (D18) Ab (all from Santa Cruz) or anti-Akt (9272), anti-phospho-Akt (9271 S), anti-VEGFR2 (55B11), anti-phospho-VEGFR2 (19A10) Ab (all from Cell Signaling) or a rabbit anti-Gal1 polyclonal IgG (1.5 μg/ml) (as described in Rubinstein et al., Cancer Cell 5:3, 241-51 (2004)).

HUVEC migration = assay: EC migration assay (HUVEC); assay type: cell-based, human
Protocol: (§5) Cells were incubated at 37° C. for periods ranging from 0 to 24 h and were visualized by phase-contrast microscopy. Capillary-like tubular structures were scored by counting the number of tubules (closed areas) per well in a phase-contrast microscope (Nikon E-100). For migration assays, ECs (4×10^4/well) transfected or not with specific siRNA were resuspended in M199 medium supplemented with 1% FCS. Cells were placed into the top chamber of the insert while the bottom well was filled with Gal1 or VEGF-A in the absence or presence of the above mentioned stimuli. After 24 hours, inserts were stained with crystal violet (Sigma) and analyzed in an inverted microscope. For each filter, 4 images were obtained and cells were counted with ImageJ software v1.46r (NIH). […] After 24 hours, cells were incubated in the presence of 0.8 μCi [^3H]-thymidine (NEN Dupont). Cells were then harvested and radioactivity was measured in a 1414 Liquid Scintillation Counter (Perkin Elmer). Tumor-associated ECs were identified by flow cytometry using Alexa Fluor 647-conjugated anti-CD34 (RAM34; eBioscience) and FITC-conjugated anti-CD45 (J33; Immunotech). Microvessel density (MVD) was determined by counting the number of CD31^+ microvessels present in 10 mm^2. Ten random 400× fields were counted.

[3] = tested on: LLC1 Lewis lung carcinoma; assay: In vivo tumor model, LLC1; design: species or system mouse
Protocol: as §5, with “Tumor-associated ECs were identified by flow cytometry using Alexa Fluor 647-conjugated anti-CD34 (RAM34; eBioscience) and FITC-conjugated anti-CD45 (J33; Immunotech).” left out
Mice were anesthetized and intracardiacally perfused with PBS and 4% (w/v) paraformaldehyde and tissues were embedded in OCT. […] Pericyte maturation was assessed using Ab specific for α-SMA (1A4; Dako), desmin (D33; Dako), PDGFR-β (APB5; Biolegend) and RGS5 (HPA001821; Prestige Sigma). […]

HUVEC tube formation = assay: Capillary-like tube formation on Matrigel (HUVEC); assay type: cell-based, human; conditions: HUVEC
Protocol: as §5

R1.1 T-cell lymphoma = assay: In vivo tumor model, R1.1; design: species or system mouse
Protocol: as §5, with “counted. […]” for “counted.”

[4] = tested on: other members of the galectin family; conditions: cited from earlier work
[5] = F8.G7 10 mg/kg combined with anti-VEGF mAb, day 7
[6] = single administration of F8.G7 mAb, 10 mg/kg

T1 sequence (P16045 whole entry): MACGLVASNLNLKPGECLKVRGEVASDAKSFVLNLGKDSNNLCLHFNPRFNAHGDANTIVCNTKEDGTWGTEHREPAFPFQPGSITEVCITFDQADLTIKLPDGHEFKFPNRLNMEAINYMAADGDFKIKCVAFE

B1: F8.G7: mouse anti-Gal1 blocking (neutralizing) monoclonal antibody; hybridoma 8F4.F8.G7, ATCC deposit PTA-10535; vH SEQ ID NO: 6, vK SEQ ID NO: 11 (antibody, V domains shown)
VH: EVQLQQSVAEFVRPGASVRLSCTASGFNIKNTYIHWVRQRPEQGLEWIGKIDPANGNTKYVPEFQGKATMTADTSSNTVYLHLSSLTSEDTAIYYCVDGYYGWYFAVWGTGTTVTVSS
VL: QAVVTQESALTTSPGETVTLTCRSSTGAVTTSNYANWVQEKPDHLFTGLIGATNNRAPGVPARFSGSLIGDKAVLTITGAQTEDEAIYFCALWYRNHFIFGSGTKVTVL
modifications: Anti-human
**Q.** What does the source list for B1?
**A.** T cells reaching tumor parenchyma (B16-F0 tumor parenchyma; CFSE-labeled T cells, vs control isotype): greater number; number of CFSE+ T cells in spleens (B16-F0 tumor parenchyma; vs control isotype): no differences; access of fluorescently-labeled beads to the tumor parenchyma (B16-F0 tumor parenchyma; vs control-treated mice): increased access; T-cell proliferation (TDLN cells; mice bearing B16-F0 tumors): stimulated; tumor-specific IL-10 production (TDLN cells; mice bearing B16-F0 tumors): blunted; immunological phenotype (TDLN cells; mice inoculated with LLC1): confirmed; number of TDLN and tumor-infiltrating IFN-γ-producing CD8+ T cells (TDLN cells; vs control-treated mice): dramatic increase; therapeutic benefit of anti-VEGF (B16-F0 melanoma [1]; F8.G7 10 mg/kg combined with anti-VEGF mAb): slightly enhanced; remodeling of tumor vasculature (B16-F0 melanoma [1]; days 4-5 post treatment): substantial remodeling of the vasculature; pericyte coverage of tumor vessels (B16-F0 melanoma [1]; days 4-5 post treatment, vs control mAb): greater coverage by pericytes; anti-tumor effect (B16-F0 melanoma [1]; immunodeficient B6.Rag1−/− mice): only a partial anti-tumor effect; concentrations at which active (B16-F0 melanoma [1]; in vivo tumor models): 5 to 10 mg/kg; tumor hypoxia (pimonidazole adducts) (B16-F0 melanoma [1]; mouse, in vivo): markedly alleviated; tumor growth at different doses (B16-F0 melanoma [1]; treated when tumors reached 100 mm^3): dose-dependent effect; Desmin expression in pericytes (B16-F0 melanoma [1]; vs control-treated tumors): no significant variations; PDGFR-β expression in pericytes (B16-F0 melanoma [1]; vs control-treated tumors): lower expression; RGS5 expression in pericytes (B16-F0 melanoma [1]; vs control-treated tumors): lower expression; α-SMA expression in pericytes (B16-F0 melanoma [1]; vs control-treated tumors): higher expression; amounts of secreted Gal1 (Gal1): dropped substantially; tumor growth and vascularization (B16-F0 melanoma [2]): sustained inhibition of tumor growth and vascularization; Gal1-induced VEGFR2 phosphorylation (VEGFR2): inhibited to levels comparable to those attained by MGAT5 silencing; EC migration induced by Gal1 (HUVEC migration): specifically prevented; anti-VEGF resistance (tumor growth inhibition and reduced vascularization) [3, 5]: successfully circumvented; tumor growth and vascularization [3, 6]: sustained inhibition of tumor growth and vascularization; tube formation induced by Gal1 (HUVEC tube formation): specifically prevented; anti-VEGF resistance (tumor growth inhibition and reduced vascularization) (R1.1 T-cell lymphoma; [5]): successfully circumvented; tumor growth and vascularization (R1.1 T-cell lymphoma; [6]): sustained inhibition of tumor growth and vascularization; binding to other members of the galectin family [4]: did not bind
